Results on one molecule are retold here after patent publication CN112409479A (INST FOR VIRAL DISEASE CONTROL AND PREVENTION CHINESE …, dated 2021).

The assay concerns the target T1, 新型冠状病毒S1蛋白 (纯化) (SARS-CoV-2, UniProt P0DTC2 14-685).
T1 construct: domain: S1
The experiment in a line: ELISA, purified IgG on coated S1 protein.

B1: 人源抗新冠病毒中和性抗体nCoV-121 全抗体IgG (antibody)
light: NFMLTQPHSVSESPGKTVTISCTRSSGSIASNYVQWYQQRPGSSPTTVIYEDNQRPSGVPDRFSGSIDSSSNSASLTISGLKTEDEADYYCQSYDSSNQWVFGGGTKLTVLGQPKAAPSVTLGQPKAAPSVTLFPPSSEELQANKATLVCLISDFYPGAVTVAWKADSSPVKAGVETTTPSKQSNNKYAASSYLSLTPEQWKSHRSYSCQVTHEGSTVEKTVAPTECS
heavy: not shown
For B1, the “dilution still ELISA-positive” value was ≥ 64000 fold dilution from 0.2mg/ml.
